Measurements from US20240083986A1 (published 2024).

What was measured:
[1] = biological target: T1, Celery (Api g 1, MyBiosource, Cat #MBS1171376) (Celery, UniProt P49372 1-154, limits assumed); experiment: SPR Biacore, 25C;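 also: binding of related allergens to purified monoclonal anti-Bet v 1 antibodies by surface plasmon resonance in HEPES-buffered saline pH 7.4, kinetics fitted to a 1:1 model with mass transport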
T1 construct: Bought reagent
T1 sequence (looked up): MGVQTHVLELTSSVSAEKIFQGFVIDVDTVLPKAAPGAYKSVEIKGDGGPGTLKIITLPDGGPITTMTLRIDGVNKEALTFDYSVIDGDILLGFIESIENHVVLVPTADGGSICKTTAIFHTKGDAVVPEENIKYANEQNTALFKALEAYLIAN

[2] = biological target: T2, Alder (Aln g 1, MyBiosource, Cat #MBS1041484) (Alder, UniProt P38948 2-160, limits assumed); experiment: SPR Biacore, 25C;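 also: binding of related allergens to purified monoclonal anti-Bet v 1 antibodies by surface plasmon resonance in HEPES-buffered saline pH 7.4, kinetics fitted to a 1:1 model with mass transport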
T2 construct: Bought reagent
T2 sequence (looked up): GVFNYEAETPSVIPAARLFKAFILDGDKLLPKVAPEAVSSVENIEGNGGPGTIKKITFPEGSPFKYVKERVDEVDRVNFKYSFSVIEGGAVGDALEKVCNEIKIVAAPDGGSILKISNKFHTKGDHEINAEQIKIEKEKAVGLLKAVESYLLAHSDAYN

[3] = biological target: T3, European Hornbeam (Car b 1 isoform 1A & 1B, MyBiosource, Cat #MBS1200018) (European Hornbeam, UniProt P38949 2-160); experiment: SPR Biacore, 25C;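 also: binding of related allergens to purified monoclonal anti-Bet v 1 antibodies by surface plasmon resonance in HEPES-buffered saline pH 7.4, kinetics fitted to a 1:1 model with mass transport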
T3 construct: Bought reagent
T3 sequence (looked up): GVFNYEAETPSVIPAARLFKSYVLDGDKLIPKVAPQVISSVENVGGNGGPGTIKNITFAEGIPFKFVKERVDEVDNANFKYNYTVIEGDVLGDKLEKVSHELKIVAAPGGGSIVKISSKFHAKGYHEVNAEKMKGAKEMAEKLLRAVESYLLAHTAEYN

[4] = biological target: T4, European Hornbeam (Car b 1 isoform 2, MyBiosource, Cat #MBS1043940) (European Hornbeam, UniProt P38950 2-160, limits assumed); experiment: SPR Biacore, 25C;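 also: binding of related allergens to purified monoclonal anti-Bet v 1 antibodies by surface plasmon resonance in HEPES-buffered saline pH 7.4, kinetics fitted to a 1:1 model with mass transport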
T4 construct: Bought reagent
T4 sequence (looked up): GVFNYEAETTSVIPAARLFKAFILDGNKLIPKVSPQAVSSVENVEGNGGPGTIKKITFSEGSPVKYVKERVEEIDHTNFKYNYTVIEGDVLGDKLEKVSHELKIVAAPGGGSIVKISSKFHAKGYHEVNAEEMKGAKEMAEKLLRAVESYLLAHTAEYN

[5] = biological target: T5, Apple (Mal d 1, MyBiosource, Cat #MBS1224919) (Apple, UniProt P43211 2-159, limits assumed); experiment: SPR Biacore, 25C
T5 construct: Bought reagent
T5 sequence (looked up): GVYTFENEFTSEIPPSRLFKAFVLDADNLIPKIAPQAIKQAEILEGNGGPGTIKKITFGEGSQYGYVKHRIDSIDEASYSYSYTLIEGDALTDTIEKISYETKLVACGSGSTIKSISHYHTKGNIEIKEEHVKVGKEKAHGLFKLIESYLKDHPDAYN

[6] = biological target: T6, natural Bet v 1 (Indoor, Cat #NA-BV1-1) (Betula verrucosa (European white birch, …, UniProt P15494 2-160)); experiment: SPR Biacore, mAb captured on anti-hFc, 25C;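 also: rate constants from sensorgrams fitted to a 1:1 model with mass transport limitation, KD and t½ derived from kinetic constants, run in HBS-ET buffer at pH 7.4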
T6 construct: Bought natural protein purified from birch pollen; also called nBet v 1
T6 sequence: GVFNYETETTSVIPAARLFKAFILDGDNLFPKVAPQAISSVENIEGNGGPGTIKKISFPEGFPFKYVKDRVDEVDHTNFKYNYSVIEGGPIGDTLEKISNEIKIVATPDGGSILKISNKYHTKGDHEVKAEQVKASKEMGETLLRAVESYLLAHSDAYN

[7] = biological target: T6, natural Bet v 1 (Indoor, Cat #NA-BV1-1); experiment: SPR Biacore, mAb captured on anti-hFc, 37C;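 also: purified anti-Bet v 1 monoclonal antibodies, HBS-ET running buffer pH 7.4, rate constants from 1:1 model fit with mass transport limitation, KD and t½ calculated from kinetic constants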
mutant Bet v 1-MMH = biological target: T7, mutant Bet v 1-MMH (Betula verrucosa (European white birch, …)); experiment: SPR Biacore, 25C and 37C
T7 construct: also called CHO produced recombinant Bet v 1 containing a S85A mutation with a C-terminal myc-myc hexahistidine tag
T7 chain: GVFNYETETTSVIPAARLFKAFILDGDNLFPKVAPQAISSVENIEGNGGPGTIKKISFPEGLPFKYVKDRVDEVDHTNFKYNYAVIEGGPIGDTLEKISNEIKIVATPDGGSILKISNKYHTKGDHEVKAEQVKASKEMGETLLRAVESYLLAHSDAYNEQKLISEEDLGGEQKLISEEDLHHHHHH

binding result [1]: no binding (tested: 100 nM) | binding result [2]: no binding (tested: 100 nM) | binding result [3]: no binding (tested: 100 nM) | binding result [4]: no binding (tested: 100 nM) | binding result [5]: no binding (tested: 100 nM) | 100 nM natural Bet v 1 Bound (RU) [6]: 27 RU | Kd [6]: 3.98 nM | koff [6]: 0.000149 s⁻¹ | kon [6]: 37600 M⁻¹ s⁻¹ | t½ [6]: 77 min | 100 nM natural Bet v 1 Bound (RU) [7]: 45 RU | Kd [7]: 14.3 nM | koff [7]: 0.000719 s⁻¹ | kon [7]: 50400 M⁻¹ s⁻¹ | t½ [7]: 16 min | binding result (mutant Bet v 1-MMH): no binding (tested: 100 nM)
B1: H4H16967P (antibody, human IgG4, V domains shown)
VH: QVQLVESGGGVVQPGRSLRLSCAASGFTFSSYGMHWFRQAPGKGLEWVGVIWSDGSDKKYADSVKGRFTISRDNSKNTLYLLMNSLRDDDTAVYHCAREGGFLYSSSSHFDYWGQGTLVTVSS
VL: AIQMTQSPSSLSASVGDRVTITCRTSQGIRNDLGWYQQKPGKAPKLLIFAASSLQSGVPSRFSGSGSGTDFTLTISSLQPEDFAIYYCLQDYKYPFTFGGGTKVEIK
